Data: the nanobody polyreactivity screen of Harvey et al. (2022)

Test: yeast display, Sf9 membrane polyspecificity reagent, FACS + sequencing; frameworks hold sequencing errors
Procedure, shortened: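 Nanobodies came from a synthetic yeast display library in Saccharomyces cerevisiae BJ5465, induced with galactose for 36–48 hours and stained for 1 hour at 4 °C with 10% biotinylated, detergent-solubilized Sf9 membrane reagent. Cells were enriched on streptavidin microbeads and then FACS-sorted, with low and high (top ~1%) gates set on anti-HA fluorescence for expression and streptavidin fluorescence for reagent binding. Each polyreactivity label reflects the gate a clone came from. Genes were amplified by colony PCR, sequenced by MiSeq 2 × 250 and filtered by CDR length.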

| Sequence | polyreactivity (PSR sort gate) |
| --- | --- |
| QVQIVESGGGLVQAGGSLRLSCAASGSIFRYNAMGWYRQARGKERELVAAITSGDSTYYADSVKGRFTISRDNAKNTVYLQMNSLKPEDTAVYYCAVTTWANTQWEEYWGHGTQVTVSS | low polyreactivity |
| QVQLVESGGGLVQAGGSLRLSCAASGLIFYDNMGWYRQAPGKERELVAAISSSGGSTSYADSVKGRFTISRDNAKNTVYFLMNSLKPEDTAVYYCAADQYYYWYTHQSIGYDYWGQGTQVTVSS | low polyreactivity |
| HVQLVESGGGLVQAGGSLRLSCAASGSTFSRYAMGWYRQAPGKERELVAAISSSGGSTYYADSVKGRFTISRDNAKNTVYLQMNSLKPEDTAVYYCAARQYFFSSWRFDYWGQGTQVTVSS | high polyreactivity |
| QVQLVESGGGLVQAGGSLRLSCAASGSIIVYNTMGWYRQAPGKERELVAAITVRDDSTYYADSVKGRFTISRDYAKNTVYLQMNSLNPEDTAVYYCNARGYFLIGRDYWGQGTQVTVSS | low polyreactivity |
| QVHLVESGGGLVKAGGSLRLSCAASGGTIFVYMGWYRQDPGKETELVADISGSGGGTYYADSVKGRFTISRDNAMNTVYLQMNSLKPEDTAVYYCAAYYGHTYNGYYYWGQGTQVTVSS | low polyreactivity |
| QVQLVESGGGLVQAGGSLRLSCAASGSTFTIYVIGWYRTAPGKERELVAAINGGGRTNYADSVKGRFTISRDNAKNTVYLQMNSLKPEDTAVYYCAADGLSNVRQMDYWGQGTQVTVSS | low polyreactivity |
| QVQLVESGGGLVQAGGSLRLSCAASGFTFQWYAMGWYRQAPGKERELVAGITSGASTNYADSVKGRFTISRDNAKNTVYLQMNSLKPEDTAVYYCAARRWREGARYSYWGQGTQVTVSS | high polyreactivity |
| QVQLVESGGGLVQAGGSLRLSCAASGITFGRNTMAWYIQAPGKERELVAAIDSGGNTYADSVKGRFTISRDNAKITVDLQMNSLKQEDTSVYYCAVVWVWDVWFLVYYWGQGTQVTVSS | low polyreactivity |
| QVQLVESGGGLVQAGGSLRLSCAASGRIFIYYTMGWYRQAPGKERELVASITWSGGRTYYADSVKGRFTISRDNAKNTVYLQMNSLKPEDTAVYYCNAGYSIGLVAYGYWGQGTQVTLSS | low polyreactivity |
| QVQLVESGGGLVQAGGSLRLSSAAYGSIFDSNAMGWYRQAPGKERELVAAIRYSGGRTYYADSVKGRFTISRDNAKNTVYLQMNILKPEDTAVYYCAARSKVYKVGYNYWGQGTQVTVSS | high polyreactivity |
| QVQLVESGGGLVQAGGSLRLSCAASGSTFSAYGMGWYRQAPGKEMELVASISWNGGSTYYADSVQGRFTISGDNAKNTVYLQMNSLKPEDTAVYYCNTELVGHPDWLSWRYYYWGQGTQVTVSS | low polyreactivity |
| QVQLVESGGGLVQAGGSLRLSCAASGFTFSLNTMGWYRQAPGKEREFVAAITYRTGRTYYADSVKGRFTISRDNAKNTVYLQMNSLKPDDTAVYYCNAGEHTRWYYWTPTYTTVDYWGLGTQVTVSS | low polyreactivity |
| QVQLVESGGGLGQAGGSLRLSCAASGSTFEGYAMGWYRQAPGKERELVAAISSSGGRTYYADSVKGRFTISRDNAKNTVYLQMNSLKPEDTAVYYCAADVSTAAVRSDSWGQGTQVTVSS | low polyreactivity |
| QVQLVESGGGLVQAGGSLRLSCVASGRIFSVYAMGWYRQAPAKERELVAGITSSGGSTYYADSVKGRFTISRDNAKNTVYLQMNSLKPEDTAVYYCAAVSEYYKGYDYWGQGTQVTVSS | high polyreactivity |
| QVNLVDSGGGLVQAGGSLRLSCAASGSTFRNNAMGWSRQAPGKERELVAVITGDGGSTYYADSVKGRFTISRDNAKNTVYLQMNSLKPEDTAVYYCNARSIRYYRFRLRFGYWGQGTQVTVSS | low polyreactivity |
| QDQLVESGGGLVQAGGSLRLISAASGSTFRKYAMGWYRQAPGKEREFVAASTKRGGSTYYADSVKGRFTISRDNAKNTVYLLLNSLKPEDTAVYYCAAYKQDIGYYWGQGTQVTVSS | high polyreactivity |
| QVQLVESGGGLVHAGGSLRLSCAASGSTEYNAMGWYRQSPGTQRELVAVITDSDGSTYYADSVKGRYTISRDNAKHTVYLQMNSLKREDTAVYYCAADDYAYSYGYWLTYDYWGQGPQVTVSS | low polyreactivity |
| QVQLVESGGGLVQAGGSLRLSCAASGRTFRFNTMGWYRQAPGKERELVAAITSSGGSTYYADSVKGRFTISRDNAKNTVYLQMNSLKPEDTAVYYCAKRFYYRNRFDYWGQGTQVTVSS | low polyreactivity |
| QVQLVESGGGLVQAGGSLRLSCAASGNTFYQYAMGWYRQAPGKERELVAAIDWSGGSTYADSVKGRFTISRDNAKNTVYLQINSLKPEDTAVYYCNASVKPSNVWSRGYDYWGQGTQVTVSS | low polyreactivity |
| QVQLVESGGGLVQAGGSLRLSCAASGSIFDFYVMGWYRQAPGKERELVAGISEGGDSTYYADSVKGRFTISRDNAKNTVYLQMNSLKPEDTAVYYCAKASAKGSYYWGQGTQVTVSS | low polyreactivity |
| QVQLVESGGGLVQAGGSLRLSCAASGSIFSYKTMGWYRQAPGKERELVAAISSDGSTYYADSVKGRFTISRDNAKNTVYLQMNSLKPEDTAVYYCAATYYPYEHYYWGQGTQVTLSS | low polyreactivity |
| QVQLVESGGGLVQAGGSLRISCAASGRTFSRYAMGGYRQAPGTERELVAAISRRGSSTYYADSVKGRFTISRDNAKNTVYLQINSLKPEDTAVYYCNTVTFPYVPALYDYWGQGTQVTVSS | high polyreactivity |

| Sequence | polyreactivity (PSR sort gate) |
| --- | --- |
| QVQLVESGGGLVQAGVSLRLSCSASGRTFSGYAMGWYRQAPGKERELVAAISGGTSTNYADSVKGRFTISRDNAKNSVYLPMNSLKPEDTAVYYCNTDVPDPYWAYWTGGYDYWGQGTHVTVSS | low polyreactivity |
| QVQLVESGGGLVQAGGSLRLSCAASGLIFRYYAMGWYRQAPGKESELVAAITSGGGTYYADSVKGRFTISRDNAKNTVYLQMNSLKPEDTAFYYCAVGSYGHPKHRRNLDYWGQGTQVTVSS | low polyreactivity |
| QVQLVESGGGLVQAGGSLRLSCAASGFIFSRNAMGWYRQAPGNERDLVAAISLRGGSTYYTDSVKGRFTISRDNAKNTVYLQMISLKPEDTAVYYCAAVSGRYLTRDGYWGQGTQVTVSS | high polyreactivity |
| QVQLVESGGGLVQAGGSLRLSCAASGSTFVTNDMGWSRQAPGKERELVAAISSGTSTNYAYSVKGRFTISRDNAKNTVYLQMNSQKPEDTAVYYCAADSLKRYDYWGQGTQVTVSS | low polyreactivity |
| QVQLVESGGGLVQAGGSLRLSCAASGSIYGTNAMGWYRKAPGKEREFVASITWGGGTYYADSVKGRFTISRDNAKNTVYFQMNSLKQEDSAVYYCATERVYTVYYDYDSWGQGTQVTVSS | low polyreactivity |
| QVQLVESGGGLVQAGGSLRLSCAASGSTFRSYAMGWYRQAPGKERELVAAISYSGDSTYYADSVKGRFTISRDNAKNTVYLQMNSLKPEDTAVYYCAALRDWDIQGEPWKRYGYWGQGTQVTVSS | low polyreactivity |
| QVQLVESGGGLVQAGGILRLSCAASGSTFRIYAKGWYRPAPGKERELVAGIRSSGGSTYYADSVKGRFTISRDKAKNTDYLQLNSLKPEDTAVYYCAKRHPYSWGSYQRYNYWGQGTQVTVSS | low polyreactivity |
| QVLLVESGGGLVQAGGSLRLSCAASGRTLPPNAMGWYRQAPGKERELGAGITWSGGSTYSADSVKGRFTISRDNAKNTVYLQMNSLKPEDTAVYYCAASRSFPGYGLYYYWGQGTQVTVSS | low polyreactivity |
| QVQLVESGGGLVQAGGSLRLSCAASGRIFAGYAMGWDRQAPGKERELVATISSGGSTYYADSVKGRFTISRDNAKNTVYLQMNSLKPEDTAVYYCAAEYGTRQYSSYYKLFNYWGQGTQVTVSS | low polyreactivity |
| QVQLVESGGCLVQAGGSLRLSCADSGSTFVIYYMGWYRQAPGKERELVAAISYSGGSTYYADSVKGRFTISRDNAKNTVYLQMNSLKPEDTAVYYGYDYWGQGTQVTVSS | low polyreactivity |
| QVQLVESGGGLVQAGGSLRLSCAASGSIFYSNAMGWYRQAPGKERELVAAIRTSAGSTYYADSVKGRFTISRDYAKNTVYLQMTSLKPEDTAVYYCAAVTTYYYYDVTDYAYEYYYWGQGTQVTVSS | low polyreactivity |
| QVQLVESGGCLVQAGGSLRLSCAASGSTYPVNAMVWSRKEPGKERELDATISWNDDSTDYADSVKGRFTISRDNAKNNVYLQLKSLKPEDTAVYYCAADWHAWGLYTFNSWGQGTLVTVSS | low polyreactivity |
| QVQLVESGGGLVQAGGSLRLSCAASGRTFNYYAMGSYRQAPGKERELVAAISWSGTPTYYADSVKGRFTISRDNAKNTVYLQMNSLKPEDTAVYYCAAHSGSTYKYWGQGTQVTVSS | low polyreactivity |
| QVQLVESGGGLVQAGGSLRLRCAASGSIFNSYAMGWYRQAPGKERELVPAISRRGGSTYYADSVKGRFTISRDNAKNTVYLQMHSLKPEDTAVYYCNATRPRLTYLGVGYGYDYWGQGTQVTVSS | high polyreactivity |
| QVQLVESGGGLVQAGGSLRLSCAASGLIFSKNVMGWYRQAPGKERELVAAISQRGGSTYYADSVKGRFTISRDNAKNTVYLQMNSLKPEDTAVYYCAARSRRRDDYWGQGTQVTVSS | high polyreactivity |
| QVQLVESGGGLVQAGGSLRLSCAASGRIFRTYAMGWYRQAPGKERELVDAISYSGGSTFYADSVKRRFTISRDNAKNTVYLQMNSLKPEYTAVYYCAADSRAKRYYWGQGTQVTVSS | high polyreactivity |
| QVQLVDSGGGLVQAGGSLRLSCAASGRTFSANAMGWYRQAPGKERELVAGITSRGGGTYYADSVKGRFTISRDNAKNTVYLQMNSLKTEDTAVYYGAKASRYWSLYYWGQGTQVTVSS | high polyreactivity |
| QVQLVESGGGLVQAGGSLRLSCAASGSTFQLYAMGWYRPPPGTERELVAGISRDGSTYYADSVKARFSISRDNSKNTVYLQMNSLKPEDTAVYYCAAKYYGNKRDLYYWGQGTQVTVSS | low polyreactivity |
| QVQLVESGGGLVQAGGSLRLSCAASGRTYAYYAIGWYRQEPGKERELVAAISSGGSTYYADSVKGLFTISRDNAKNTVYLQMNSLKPEDTAVNYCATRDKQYYYWGQGTQVTLSS | high polyreactivity |
| QVQLVESGGGLVQAGGSLRLSCAASGRTFGNNAMGWYRQAPGKEREFVAAITSRGGSTYYADSVKGRFTISRDNAKNTVYLQINSLKPEDTAVYYCNREYQLPSQRTEHYYWGQGTQVTVSS | low polyreactivity |
| QVQLVESGGGLVQAGGSLRLSCAASGSIFQGYAMGWYRQAPGKERELVAGITSSGGRTRYADSVKGRFTISRDNAKNTVFLQMNSLKPEDTAVYYCAADYVRHIGYNYWGQGTQVTVSS | high polyreactivity |
